Starred links: 1 amine or outer side, 2 acyl side, 3 side chain; linkers in the order of their positions; H or OH if unused. Non-standard residues stand in square brackets, D forms with d. No end group written: not given here. Ala(2-Qui) = 2-quinolylalanine, O=C([C@H](Cc1ccc2ccccc2n1)N[*:1])[*:2]; Phe(3,4-Cl2) = N[C@@H](Cc1ccc(Cl)c(Cl)c1)C(=O)O; 1Nal = N[C@@H](Cc1cccc2ccccc12)C(=O)O; 2Nal = N[C@@H](Cc1ccc2ccccc2c1)C(=O)O; Arg(Me) = CNC(=N)NCCC[C@H](N)C(=O)O; Bta = N[C@@H](Cc1csc2ccccc12)C(=O)O; Cha = N[C@@H](CC1CCCCC1)C(=O)O; azaGly = NNC(=O)O
Legend:
[1] = target: T1, human OT7T175 (metastin receptor) (human, UniProt Q969F8 1-398); assay: cell-based or functional assay
T1 sequence (Q969F8 whole entry L364H): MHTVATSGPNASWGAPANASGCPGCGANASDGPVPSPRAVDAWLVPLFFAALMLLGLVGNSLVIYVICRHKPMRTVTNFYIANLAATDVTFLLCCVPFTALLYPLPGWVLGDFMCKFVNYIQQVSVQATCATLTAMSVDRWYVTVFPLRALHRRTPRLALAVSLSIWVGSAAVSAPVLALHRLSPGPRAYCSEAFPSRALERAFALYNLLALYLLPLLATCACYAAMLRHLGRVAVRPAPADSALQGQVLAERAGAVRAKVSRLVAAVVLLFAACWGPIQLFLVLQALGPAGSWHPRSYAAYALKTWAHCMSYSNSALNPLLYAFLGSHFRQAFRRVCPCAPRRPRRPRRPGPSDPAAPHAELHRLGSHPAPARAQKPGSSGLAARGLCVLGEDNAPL

[2] = target: T1, human OT7T175 (metastin receptor); assay: competition with Cy-5 metastin (40-54) on hOT7T175-CHO cells, FMAT
[3] = target: T1, human OT7T175 (metastin receptor); assay: cell-based or functional assay; remark: listed apart in the source

| Binder | Ca ion level-increasing activity (FLIPR) [1] | IC50 [2] [nM] | Ca ion level-increasing activity (FLIPR, 40 s) [3] [EC50/MS10 EC50] |
| --- | --- | --- | --- |
| [dY][2Nal]NSF[azaGly]L[Arg(Me)]F-NH2 (also called Compound No. 255) [des(1)-[D-Tyr2,Nal(2)3,AzaGly7,Arg(Me)9]MS10] | 1 x Metastin (1-54) | 33 | – |
| YNWNSXGLRF (D-Tyr1; Cha6; Arg(Me)9; C-terminal amide, also called Compound No. 203) [[D-Tyr1,Cha6,Arg(Me)9]MS10] | 10 x Metastin (1-54) | 37 | – |
| YNWNSFGLR[Ala(2-Qui)]-NH2 (N-terminus assumed; SMILES CC(C)C[C@H](NC(=O)CNC(=O)[C@H](Cc1ccccc1)NC(=O)[C@H](CO)NC(=O)[C@H](CC(N)=O)NC(=O)[C@H](Cc1c[nH]c2ccccc12)NC(=O)[C@H](CC(N)=O)NC(=O)[C@@H](N)Cc1ccc(O)cc1)C(=O)N[C@@H](CCCNC(=N)N)C(=O)N[C@@H](Cc1ccc2ccccc2n1)C(N)=O, also called Compound No. 201) [[Ala(2-Qui)10]MS10] | 1 x Metastin (1-54) | 820 | – |
| [dY][dW]NSFGL[Arg(Me)]F-NH2 (also called Compound No. 224) [des(1)-[D-Tyr2,D-Trp3,Arg(Me)9]MS10] | 2 x Metastin (1-54) | 140 | – |
| [dY]N[1Nal]NSF[azaGly]L[Arg(Me)]F-NH2 (N-terminus assumed; SMILES CNC(=N)NCCC[C@H](NC(=O)[C@H](CC(C)C)NC(=O)NNC(=O)[C@H](Cc1ccccc1)NC(=O)[C@H](CO)NC(=O)[C@H](CC(N)=O)NC(=O)[C@H](Cc1cccc2ccccc12)NC(=O)[C@H](CC(N)=O)NC(=O)[C@H](N)Cc1ccc(O)cc1)C(=O)N[C@@H](Cc1ccccc1)C(N)=O, also called Compound No. 245) [[D-Tyr1,Nal(1)3,AzaGly7,Arg(Me)9]MS10] | 1 x Metastin (1-54) | 98 | – |
| [dY]NWASFGL[Arg(Me)]F-NH2 (N-terminus assumed; SMILES CNC(=N)NCCC[C@H](NC(=O)[C@H](CC(C)C)NC(=O)CNC(=O)[C@H](Cc1ccccc1)NC(=O)[C@H](CO)NC(=O)[C@H](C)NC(=O)[C@H](Cc1c[nH]c2ccccc12)NC(=O)[C@H](CC(N)=O)NC(=O)[C@H](N)Cc1ccc(O)cc1)C(=O)N[C@@H](Cc1ccccc1)C(N)=O, also called Compound No. 210) [[D-Tyr1,Ala4,Arg(Me)9]MS10] | 1 x Metastin (1-54) | 730 | 9.3 |
| [dY]NWNAFGL[Arg(Me)]F-NH2 (N-terminus assumed; SMILES CNC(=N)NCCC[C@H](NC(=O)[C@H](CC(C)C)NC(=O)CNC(=O)[C@H](Cc1ccccc1)NC(=O)[C@H](C)NC(=O)[C@H](CC(N)=O)NC(=O)[C@H](Cc1c[nH]c2ccccc12)NC(=O)[C@H](CC(N)=O)NC(=O)[C@H](N)Cc1ccc(O)cc1)C(=O)N[C@@H](Cc1ccccc1)C(N)=O) [[D-Tyr1,Ala5,Arg(Me)9]MS10] | 10 x Metastin (1-54) | 36 | 1.1 |
| [dY]NVNSF[azaGly]L[Arg(Me)]F-NH2 (N-terminus assumed; SMILES CNC(=N)NCCC[C@H](NC(=O)[C@H](CC(C)C)NC(=O)NNC(=O)[C@H](Cc1ccccc1)NC(=O)[C@H](CO)NC(=O)[C@H](CC(N)=O)NC(=O)[C@@H](NC(=O)[C@H](CC(N)=O)NC(=O)[C@H](N)Cc1ccc(O)cc1)C(C)C)C(=O)N[C@@H](Cc1ccccc1)C(N)=O, also called Compound No. 234) [[D-Tyr1,Val3,AzaGly7,Arg(Me)9]MS10] | 1 x Metastin (1-54) | 47 | – |
| [dY]NVNSFGL[Arg(Me)]F-NH2 (N-terminus assumed; SMILES CNC(=N)NCCC[C@H](NC(=O)[C@H](CC(C)C)NC(=O)CNC(=O)[C@H](Cc1ccccc1)NC(=O)[C@H](CO)NC(=O)[C@H](CC(N)=O)NC(=O)[C@@H](NC(=O)[C@H](CC(N)=O)NC(=O)[C@H](N)Cc1ccc(O)cc1)C(C)C)C(=O)N[C@@H](Cc1ccccc1)C(N)=O, also called Compound No. 229) [[D-Tyr1,Val3,Arg(Me)9]MS10] | 1 x Metastin (1-54) | 130 | – |
| [dY]NWNSFGV[Arg(Me)]F-NH2 (also called Compound No. 213) [[D-Tyr1,Val8,Arg(Me)9]MS10] | 2 x Metastin (1-54) | 190 | – |
| [dY]TWNSFGL[Arg(Me)]F-NH2 (N-terminus assumed; SMILES CNC(=N)NCCC[C@H](NC(=O)[C@H](CC(C)C)NC(=O)CNC(=O)[C@H](Cc1ccccc1)NC(=O)[C@H](CO)NC(=O)[C@H](CC(N)=O)NC(=O)[C@H](Cc1c[nH]c2ccccc12)NC(=O)[C@@H](NC(=O)[C@H](N)Cc1ccc(O)cc1)[C@@H](C)O)C(=O)N[C@@H](Cc1ccccc1)C(N)=O, also called Compound No. 215) [[D-Tyr1,Thr2,Arg(Me)9]MS10] | 10 x Metastin (1-54) | 250 | – |
| [dY]NTNSFGL[Arg(Me)]F-NH2 (N-terminus assumed; SMILES CNC(=N)NCCC[C@H](NC(=O)[C@H](CC(C)C)NC(=O)CNC(=O)[C@H](Cc1ccccc1)NC(=O)[C@H](CO)NC(=O)[C@H](CC(N)=O)NC(=O)[C@@H](NC(=O)[C@H](CC(N)=O)NC(=O)[C@H](N)Cc1ccc(O)cc1)[C@@H](C)O)C(=O)N[C@@H](Cc1ccccc1)C(N)=O, also called Compound No. 205) [[D-Tyr1,Thr3,Arg(Me)9]MS10] | 10 x Metastin (1-54) | 260 | – |
| [dY][dW]NSF[azaGly]L[Arg(Me)]F-NH2 (N-terminus assumed; SMILES CNC(=N)NCCC[C@H](NC(=O)[C@H](CC(C)C)NC(=O)NNC(=O)[C@H](Cc1ccccc1)NC(=O)[C@H](CO)NC(=O)[C@H](CC(N)=O)NC(=O)[C@@H](Cc1c[nH]c2ccccc12)NC(=O)[C@H](N)Cc1ccc(O)cc1)C(=O)N[C@@H](Cc1ccccc1)C(N)=O, also called Compound No. 242) [des(1)-[D-Tyr2,D-Trp3,AzaGly7,Arg(Me)9]MS10] | 2 x Metastin (1-54) | 70 | 1.4 |
| [dY]N[Cha]NSF[azaGly]L[Arg(Me)]F-NH2 (N-terminus assumed; SMILES CNC(=N)NCCC[C@H](NC(=O)[C@H](CC(C)C)NC(=O)NNC(=O)[C@H](Cc1ccccc1)NC(=O)[C@H](CO)NC(=O)[C@H](CC(N)=O)NC(=O)[C@H](CC1CCCCC1)NC(=O)[C@H](CC(N)=O)NC(=O)[C@H](N)Cc1ccc(O)cc1)C(=O)N[C@@H](Cc1ccccc1)C(N)=O, also called Compound No. 190) [[D-Tyr1,Cha3,AzaGly7,Arg(Me)9]MS10] | 10 x Metastin (1-54) | 12 | – |
| YNWNSFGLR[Phe(3,4-Cl2)]-NH2 (also called Compound No. 199) [[Phe(3,4Cl2)10]MS10] | 3 x Metastin (1-54) | 470 | – |
| [dY]N[Cha]NS[Cha]GL[Arg(Me)]W-NH2 (N-terminus assumed; SMILES CNC(=N)NCCC[C@H](NC(=O)[C@H](CC(C)C)NC(=O)CNC(=O)[C@H](CC1CCCCC1)NC(=O)[C@H](CO)NC(=O)[C@H](CC(N)=O)NC(=O)[C@H](CC1CCCCC1)NC(=O)[C@H](CC(N)=O)NC(=O)[C@H](N)Cc1ccc(O)cc1)C(=O)N[C@@H](Cc1c[nH]c2ccccc12)C(N)=O, also called Compound No. 182) [[D-Tyr1,Cha3,6,Arg(Me)9,Trp10]MS10] | 5 x Metastin (1-54) | 98 | – |
| [dY]WNSFGL[Arg(Me)]F-NH2 (N-terminus assumed; SMILES CNC(=N)NCCC[C@H](NC(=O)[C@H](CC(C)C)NC(=O)CNC(=O)[C@H](Cc1ccccc1)NC(=O)[C@H](CO)NC(=O)[C@H](CC(N)=O)NC(=O)[C@H](Cc1c[nH]c2ccccc12)NC(=O)[C@H](N)Cc1ccc(O)cc1)C(=O)N[C@@H](Cc1ccccc1)C(N)=O, also called Compound No. 217) [des(1)-[D-Tyr2,Arg(Me)9]MS10] | 20 x Metastin (1-54) | 250 | 3.1 |
| [dY]TNSF[azaGly]L[Arg(Me)]F-NH2 (also called Compound No. 241) [des(1)-[D-Tyr2,Thr3,AzaGly7,Arg(Me)9]MS10] | 1 x Metastin (1-54) | 56 | 5.3 |
| [dY]N[2Nal]NSF[azaGly]L[Arg(Me)]F-NH2 (N-terminus assumed; SMILES CNC(=N)NCCC[C@H](NC(=O)[C@H](CC(C)C)NC(=O)NNC(=O)[C@H](Cc1ccccc1)NC(=O)[C@H](CO)NC(=O)[C@H](CC(N)=O)NC(=O)[C@H](Cc1ccc2ccccc2c1)NC(=O)[C@H](CC(N)=O)NC(=O)[C@H](N)Cc1ccc(O)cc1)C(=O)N[C@@H](Cc1ccccc1)C(N)=O, also called Compound No. 246) [[D-Tyr1,Nal(2)3,AzaGly7,Arg(Me)9]MS10] | 2 x Metastin (1-54) | 7.1 | – |
| YNWNSFGLR[Bta]-NH2 (N-terminus assumed; SMILES CC(C)C[C@H](NC(=O)CNC(=O)[C@H](Cc1ccccc1)NC(=O)[C@H](CO)NC(=O)[C@H](CC(N)=O)NC(=O)[C@H](Cc1c[nH]c2ccccc12)NC(=O)[C@H](CC(N)=O)NC(=O)[C@@H](N)Cc1ccc(O)cc1)C(=O)N[C@@H](CCCNC(=N)N)C(=O)N[C@@H](Cc1csc2ccccc12)C(N)=O, also called Compound No. 189) [[Ala(3-Bzt)10]MS10] | 10 x Metastin (1-54) | 230 | – |
